Assay [1] concerns the target α-thrombin (UniProt P00734).
For assay [2], the target named is α-thrombin (UniProt P00734). The source holds these as a separate data set.
The target in assay [3] is α-thrombin (UniProt P00734). Description: SPR; competition: BIAcore X, 25°C; biotinylated HCII 1-75 on streptavidin-coated chip; peptides combined with 250 nM thrombin immediately before flowing over the chip; Ki from IC50 and the KD of 340 nM.
Assay [4] concerns the target α-thrombin (UniProt P00734). The experiment in a line: ELISA; competition: HCII 1-75 immobilised on microtiter wells; competitor peptides added with 5 nM α-thrombin; ratio of absorbance with and without competitor; IC50 by linear regression of log-transformed plots. (In general: An ELISA detects its analyte on a solid surface through an enzyme-linked reagent.)
In assay [5] the target is Biotinylated HCII 1-75 (human). The experiment in a line: SPR; BIAcore X, 25°C; biotinylated HCII 1-75 on streptavidin-coated chip; thrombin 0-30 μM flowed at 20 μL/minute in 10 mM HEPES, 150 mM NaCl, 0.005% Tween-20, pH 7.7; one site binding model of plateau responses.
For assay [6], the target named is α-thrombin (UniProt P00734). The source holds these as a separate data set.

In the assay with α-thrombin [1], “Biotinylated HCII 1-75 (domain or fragment)” displayed a concentration required to double the thrombin clotting time (data not shown) of 11.7 µM.
The term Ki denotes the dissociation constant of the complex between target and ligand, obtained from inhibition or displacement. As usually defined, the IC50 is the point on the concentration scale where inhibition reaches its midpoint. In turn, “sulfo-Hir 54-65 (synthetic peptide containing the C-terminal 12 residues of hirudin variant 1, with Tyr63 sulfated) (from UniProt P01050 54-65)” gave a concentration required to double the thrombin clotting time of diluted citrated human plasma in the assay with α-thrombin [2] of 0.15 µM. Also, the Ki with α-thrombin [3] was found to be 54 nM. The IC50 in the assay with α-thrombin [4] was 140 nM.
What is called Kd is the equilibrium constant for the complex coming apart. The substance “FPR-ck-thrombin (thrombin inactivated at its active site using D-Phe-L-Pro-L-Arg chloromethylketone) (from UniProt P00734 364-622) (enzyme)” came in with an equilibrium dissociation constant (Kd) in assay [5] of 330 nM.
Substance “HCII 1-75 (recombinant peptide containing the first 75 residues of human heparin cofactor II and a nonapeptide N-terminal MGSH6 tag) (domain or fragment)” showed a concentration required to double the thrombin clotting time of diluted citrated human plasma with α-thrombin [2] of 13 µM. Besides, in the assay with α-thrombin [6], the fold reduction of the apparent second-order rate constant of inhibition of 14 nM thrombin by 140 nM plasma-derived HCII with 55 μg/mL standard heparin, 250 μM peptide (Figure 5A) came to 2.8 fold and the fold reduction of the apparent second-order rate constant of inhibition of thrombin by plasma-derived HCII with 1.4 μM dermatan sulfate, 250 μM peptide (Figure 5B) turned out to be 7 fold. For the same substance, in the assay with α-thrombin [1], the concentration required to double the thrombin clotting time, unmodified polypeptide compared with the biotinylated one (data not shown) came out at 12.8 µM. The Ki with α-thrombin [3] came out at 2600 nM. In the assay with α-thrombin [4], the concentration for half-maximal inhibition (IC50) turned out to be 11000 nM.
For the substance “α-thrombin (from UniProt P00734 364-622) (enzyme)”, the Kd in assay [5] stood at 340 nM.

The values are drawn from PMC3601010, “The complete N-terminal extension of heparin cofactor II is required for maximal effectiveness as a thrombin exosite 1 ligand” (BMC Biochemistry, 2013).
